Reference: US20220372155A1 (LYVGEN BIOPHARMA, published 2022)

B1: Ly413 (bispecific antibody, human IgG1, kappa)
heavy: EVQLVESGGGLVQPGGSLRLSCAASGFNIKDTYMHWVRQAPGKGLEWVARIDPANGNSKYADSVKGRFTISADTSKNTAYLQMNSLRAEDTAVYYCAPFGYYVSDYAMAYWGQGTLVTVSSASTKGPSVFPLAPSSKSTSGGTAALGCLVKDYFPEPVTVSWNSGALTSGVHTFPAVLQSSGLYSLSSVVTVPSSSLGTQTYICNVNHKPSNTKVDKKVEPKSCDKTHTCPPCPAPELLGPSVFLFPPKPKDTLMISRTPEVTCVVVDVSHEDPEVKFNWYVDGVEVHNAKTKPREEQYNSTYRVVSVLTVLHQDWLNGKEYKCKVSNKALPAPIEKTISKAKGQPREPQVYTLPPSREEMTKNQVSLTCLVKGFYPSDIAVEWESNGQPENNYKTTPPVLDSDGSFFLYSKLTVDKSRWQQGNVFSCSVMHEALHNHYTQKSLSLSPGGGGGSGGGGSGGGGSGGGGSDIQMTQSPSSLSASVGDRVTITCLASEDISNDLAWYQQKPGKAPKLLIYFVDRLLDGVPSRFSGSGSGTDFTLTISSLQPEDFATYYCQQSYKYPPTFGQGTKLEIKGGGGSGGGGSGGGGSGGGGSEVQLVESGGGLVQPGGSLRLSCAASGFTFTNYGLHWVRQAPGKGLEWVSSISPSGGVTYYRDSVKGRFTISRDNSKNTLYLQMNSLRAEDTAVYYCAKPFLGWGGANWIAHWGQGTLVTVSS
light: DIQLTQSPSSLSASVGDRVTITCRAGESVDIFGVGFLHWYQQKPGKAPKLLIYRASNLESGVPSRFSGSGSRTDFTLTISSLQPEDFATYYCQQTNEDPYTFGQGTKVEIKRTVAAPSVFIFPPSDEQLKSGTASVVCLLNNFYPREAKVQWKVDNALQSGNSQESVTEQDSKDSTYSLSSTLTLSKADYEKHKVYACEVTHQGLSSPVTKSFNRGEC
notes: Ly312 HC (IgG1 mutated Fc)-TM559 scFv VL-VH + Ly312 LC
B2: Ly414 (bispecific antibody, human IgG1, kappa)
heavy: EVQLVESGGGLVQPGGSLRLSCAASGFNIKDTYMHWVRQAPGKGLEWVARIDPANGNSKYADSVKGRFTISADTSKNTAYLQMNSLRAEDTAVYYCAPFGYYVSDYAMAYWGQGTLVTVSSASTKGPSVFPLAPSSKSTSGGTAALGCLVKDYFPEPVTVSWNSGALTSGVHTFPAVLQSSGLYSLSSVVTVPSSSLGTQTYICNVNHKPSNTKVDKKVEPKSCDKTHTCPPCPAPELLGPSVFLFPPKPKDTLMISRTPEVTCVVVDVSHEDPEVKFNWYVDGVEVHNAKTKPREEQYNSTYRVVSVLTVLHQDWLNGKEYKCKVSNKALPAPIEKTISKAKGQPREPQVYTLPPSREEMTKNQVSLTCLVKGFYPSDIAVEWESNGQPENNYKTTPPVLDSDGSFFLYSKLTVDKSRWQQGNVFSCSVMHEALHNHYTQKSLSLSPGGGGGSGGGGSGGGGSGGGGSEVQLVESGGGLVQPGGSLRLSCAASGFTFTNYGLHWVRQAPGKGLEWVSSISPSGGVTYYRDSVKGRFTISRDNSKNTLYLQMNSLRAEDTAVYYCAKPFLGWGGANWIAHWGQGTLVTVSSGGGGSGGGGSGGGGSGGGGSDIQMTQSPSSLSASVGDRVTITCLASEDISNDLAWYQQKPGKAPKLLIYFVDRLLDGVPSRFSGSGSGTDFTLTISSLQPEDFATYYCQQSYKYPPTFGQGTKLEIK
light: B1 light
notes: Ly312 HC (IgG1 mutated Fc)-TM559 scFv VH-VL + Ly312 LC

Target: T1, human CD40 expressed on CHO cells (human, UniProt P25942 21-277)
T1 construct: whole, on cells; also used for the reporter cells over-expressing human CD40; also called cellular CD40; CHO-CD40 cells
T1 sequence (P25942 21-277): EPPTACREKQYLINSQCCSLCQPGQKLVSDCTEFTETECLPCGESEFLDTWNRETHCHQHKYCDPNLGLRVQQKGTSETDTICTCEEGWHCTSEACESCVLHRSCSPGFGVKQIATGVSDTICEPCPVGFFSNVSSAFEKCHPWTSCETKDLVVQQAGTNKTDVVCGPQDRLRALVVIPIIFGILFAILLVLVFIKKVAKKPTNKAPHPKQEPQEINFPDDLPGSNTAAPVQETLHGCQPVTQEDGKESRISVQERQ
Assay: FACS, CHO cells

| Binder | binding result |
| --- | --- |
| B1 | binds |
| B2 | binds |
